In paper PMC3399781 one finds Kd and dH data, which are given here for 2 substances.

In general, Kd refers to a measure of binding affinity in units of concentration. Lower therefore signals higher affinity.

Experiment [1] addresses 1GS mGRFT (GRFT with GS inserted between Ser16 and Gly17) (Griffithsia sp.) (UniProt P84801). The experiment can be described thus: AUC.
Experiment [2] deals with HIV-1 glycoprotein gp120 (HIV-1) (UniProt P04578). In words: ITC. In general terms: Isothermal titration calorimetry measures the heat released or taken up as one component is titrated into another.

Consider “1GS mGRFT (GRFT with GS inserted between Ser16 and Gly17) (from UniProt P84801 1-121) (natural protein)”, for which, in experiment [1], the Kd came to 120 µM.

Take “1GS-S mGRFT (L2S variant of 1GS) (from UniProt P84801 1-121) (natural protein)”: in experiment [2], the dissociation constant (Kd) was 0.112 µM and the dH is -35.5 kcal/mol.
